How the values were obtained:
FLAG-AKT^T308A = FLAG-AKT^T308A (UniProt P31749); assay: co-IP; SK-Br3 cells transfected with FLAG-tagged AKT constructs, starved with U0126, treated with TZ 20 min, cross-linked with DSP; anti-FLAG magnetic beads, 3 h at 4 °C; Western blot, amounts normalised on precipitated protein and input
FLAG-AKT^T308D = FLAG-AKT^T308D (UniProt P31749); assay: as above

percent co-precipitated against wt AKT (FLAG-AKT^T308A): 60%
percent co-precipitated against wt AKT (FLAG-AKT^T308D): 60%
Substance: Ser/Thr-protein phosphatase 2A (PP2A)-catalytic subunit beta isoform (from UniProt P62714 1-309) (enzyme)

— article PMC7547737
